Experimental findings from patent publication US20110178027A1 are described below.

For orientation: Ki means a measure of affinity in units of concentration, obtained from inhibition or displacement. Higher therefore signals weaker binding.

Sequence of PC4 (Q6UW60 114-708): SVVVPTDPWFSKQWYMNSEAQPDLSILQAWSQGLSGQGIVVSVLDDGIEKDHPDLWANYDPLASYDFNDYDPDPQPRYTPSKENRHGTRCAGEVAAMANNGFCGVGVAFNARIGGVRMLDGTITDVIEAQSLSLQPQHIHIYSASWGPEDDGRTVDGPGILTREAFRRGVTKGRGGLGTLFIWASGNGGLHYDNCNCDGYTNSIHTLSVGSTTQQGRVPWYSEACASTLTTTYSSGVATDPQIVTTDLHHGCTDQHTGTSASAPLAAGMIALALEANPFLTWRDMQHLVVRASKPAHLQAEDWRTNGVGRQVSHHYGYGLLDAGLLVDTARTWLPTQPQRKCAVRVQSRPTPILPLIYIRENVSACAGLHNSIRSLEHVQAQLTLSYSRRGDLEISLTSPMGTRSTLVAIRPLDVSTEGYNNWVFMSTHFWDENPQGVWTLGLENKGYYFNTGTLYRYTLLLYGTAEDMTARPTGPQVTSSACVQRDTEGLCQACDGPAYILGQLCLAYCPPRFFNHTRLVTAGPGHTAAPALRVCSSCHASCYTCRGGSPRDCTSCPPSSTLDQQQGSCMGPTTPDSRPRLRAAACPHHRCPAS

This experiment has as its target PC4 (UniProt Q6UW60). The experiment can be described thus: enzyme inhibition.
With LLLRVKR-NH2, the Ki is 730 nM. Under LLRVKR-NH2 stands 330 nM; under LRVKR-NH2, 630 nM; under RVKR-NH2, 20800 nM.
